Data published in the supplement of paper PMC10598134.
± gives the standard deviation.

Test: collision cross section of modified peptide (TIMS, N2, iRT-aligned); higher = larger / more extended gas-phase ion
Method in brief: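 Synthetic peptide pools (~100 fmol/µL in 2% acetonitrile/0.1% formic acid, iRT standard spiked 1:40) were separated on a 120-min nanoflow C18 gradient at 60 °C. They were analysed on a timsTOF Pro/HT (dda-PASEF, nitrogen, ~2.4 mbar) and identified with MaxQuant. 1/K0 was calibrated with three reference ions and aligned run-wise to the median iRT peptide deviation. Collision cross section came from the Mason-Schamp equation, averaging 1–3 technical replicates of the most abundant feature per charge state.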

[1] = charge state: 2, modification: Phospho (Y)
[2] = charge state: 2, modification: Citrullination (R)
[3] = charge state: 3, modification: Methyl (R)
[4] = charge state: 2, modification: HexNAc (ST)
[5] = charge state: 3, modification: HexNAc (ST)
[6] = charge state: 2, modification: Nitro (Y)
[7] = charge state: 2, modification: Acetyl (K)
[8] = charge state: 2, modification: Butyryl
[9] = charge state: 3, modification: Butyryl
[10] = charge state: 2, modification: Crotonyl
[11] = charge state: 2, modification: Dimethyl (K)
[12] = charge state: 3, modification: Dimethyl (K)
[13] = charge state: 2, modification: Formyl
[14] = charge state: 2, modification: Glutarylation
[15] = charge state: 3, modification: Glutarylation
[16] = charge state: 2, modification: GlyGly (K)
[17] = charge state: 3, modification: GlyGly (K)
[18] = charge state: 2, modification: Malonyl
[19] = charge state: 2, modification: Methyl (K)
[20] = charge state: 3, modification: Methyl (K)
[21] = charge state: 2, modification: Propionyl
[22] = charge state: 2, modification: Succinyl
[23] = charge state: 2, modification: Trimethyl (K)
[24] = charge state: 3, modification: Trimethyl (K)
[25] = charge state: 2, modification: hydroxyisobutyryl

Sequence LQNSYQPTNK [_LQNSY(Phospho (Y))QPTNK_] has a collision cross section [1] of 366.81 ± 0.064 Å².
“LRQQLQAK [_LR(Citrullination (R))QQLQAK_]” gave a collision cross section [2] of 337.45 ± 0.28 Å².
In the case of LRQQLQAK [_LR(Methyl (R))QQLQAK_], the collision cross section (charge state: 2, modification: Methyl (R)) is reported as 356.39 ± 9.6 Å² and the collision cross section [3] is reported as 413.25 ± 2 Å².
In the case of LSEHATAPTR [_LSEHATAPT(HexNAc (ST))R_], the collision cross section [4] is reported as 370.75 ± 0.68 Å² and the collision cross section [5] is reported as 450.64 ± 0.17 Å².
In the case of “LSESHPDATEDLQR [_LS(HexNAc (ST))ESHPDATEDLQR_]”, the collision cross section [5] is reported as 486.6 ± 0.17 Å².
Sequence “LSFGLEDEPLETATK [_LSFGLEDEPLET(HexNAc (ST))ATK_]” has a collision cross section [4] of 457.66 ± 0.56 Å² and a collision cross section [5] of 480.97 Å².
Sequence LSITGTYDLK [_LSITGTY(Nitro (Y))DLK_] has a collision cross section [6] of 368.48 ± 0.22 Å².
LSITGTYDLK [_LSITGTY(Phospho (Y))DLK_] showed a collision cross section [1] of 381.43 ± 0.65 Å².
“LSQEDPDYGIR [_LS(HexNAc (ST))QEDPDYGIR_]” gave a collision cross section [4] of 396.72 ± 0.76 Å².
With LSSETYSQAK [_LSSETY(Nitro (Y))SQAK_] the collision cross section [6] was 352.74 ± 0.47 Å².
Sequence LSSETYSQAK [_LSSETY(Phospho (Y))SQAK_] has a collision cross section [1] of 357.2 ± 0.065 Å².
For “LSTPPPLAEEEGLASR [_LS(HexNAc (ST))TPPPLAEEEGLASR_]”, the collision cross section [4] was 448.88 Å² and the collision cross section [5] was 503.24 Å².
Sequence “LTEKELAEAASK [_LTEK(Acetyl (K))ELAEAASK_]” has a collision cross section [7] of 387.12 ± 0.45 Å².
For LTEKELAEAASK [_LTEK(Biotin)ELAEAASK_], the collision cross section (charge state: 2, modification: Biotin) was 418.47 ± 3 Å².
In the case of LTEKELAEAASK [_LTEK(Butyryl)ELAEAASK_], the collision cross section [8] is reported as 394.05 ± 1.5 Å² and the collision cross section [9] is reported as 455.88 Å².
In the case of LTEKELAEAASK [_LTEK(Crotonyl)ELAEAASK_], the collision cross section [10] is reported as 394.89 ± 2.4 Å².
“LTEKELAEAASK [_LTEK(Dimethyl (K))ELAEAASK_]” showed a collision cross section [11] of 397.3 ± 0.55 Å² and a collision cross section [12] of 456.37 ± 5.1 Å².
LTEKELAEAASK [_LTEK(Formyl)ELAEAASK_] showed a collision cross section [13] of 382.92 ± 0.9 Å².
In the case of “LTEKELAEAASK [_LTEK(Gluratylation)ELAEAASK_]”, the collision cross section [14] is reported as 395.13 ± 2.6 Å² and the collision cross section [15] is reported as 453.47 ± 1.2 Å².
Work on “LTEKELAEAASK [_LTEK(GlyGly (K))ELAEAASK_]” yielded a collision cross section [16] of 404.34 ± 0.36 Å² and a collision cross section [17] of 453.97 ± 1.1 Å².
Work on LTEKELAEAASK [_LTEK(Malonyl)ELAEAASK_] yielded a collision cross section [18] of 390.08 ± 1.1 Å² and a collision cross section (charge state: 3, modification: Malonyl) of 448.74 ± 2.2 Å².
In the case of “LTEKELAEAASK [_LTEK(Methyl (K))ELAEAASK_]”, the collision cross section [19] is reported as 392.99 ± 1 Å² and the collision cross section [20] is reported as 445.12 ± 4.9 Å².
For “LTEKELAEAASK [_LTEK(Propionyl)ELAEAASK_]”, the collision cross section [21] was 389.08 ± 0.49 Å².
For LTEKELAEAASK [_LTEK(Succinyl)ELAEAASK_], the collision cross section [22] was 389.23 ± 1.1 Å² and the collision cross section (charge state: 3, modification: Succinyl) was 454.1 Å².
Sequence “LTEKELAEAASK [_LTEK(Trimethyl (K))ELAEAASK_]” has a collision cross section [23] of 406.14 ± 0.61 Å² and a collision cross section [24] of 451.11 ± 2.4 Å².
In the case of “LTEKELAEAASK [_LTEK(hydroxyisobutyryl)ELAEAASK_]”, the collision cross section [25] is reported as 392.48 ± 2 Å² and the collision cross section (charge state: 3, modification: hydroxyisobutyryl) is reported as 455.87 ± 2.2 Å².
In the case of “LTSLNVKYNNDK [_LTSLNVK(Acetyl (K))YNNDK_]”, the collision cross section [7] is reported as 407.77 ± 1 Å².
Work on LTSLNVKYNNDK [_LTSLNVK(Butyryl)YNNDK_] yielded a collision cross section [8] of 414.27 ± 0.78 Å².
Sequence LTSLNVKYNNDK [_LTSLNVK(Crotonyl)YNNDK_] has a collision cross section [10] of 414.39 ± 1.1 Å².
In the case of “LTSLNVKYNNDK [_LTSLNVK(Dimethyl (K))YNNDK_]”, the collision cross section [11] is reported as 409.23 ± 0.76 Å² and the collision cross section [12] is reported as 464.81 ± 1.6 Å².
In the case of LTSLNVKYNNDK [_LTSLNVK(Formyl)YNNDK_], the collision cross section [13] is reported as 404.27 ± 0.2 Å².
In the case of “LTSLNVKYNNDK [_LTSLNVK(Gluratylation)YNNDK_]”, the collision cross section [14] is reported as 413.21 ± 1.1 Å².
Work on “LTSLNVKYNNDK [_LTSLNVK(GlyGly (K))YNNDK_]” yielded a collision cross section [16] of 424.54 ± 1.4 Å² and a collision cross section [17] of 491.6 ± 1.1 Å².
Work on LTSLNVKYNNDK [_LTSLNVK(Malonyl)YNNDK_] yielded a collision cross section [18] of 402.04 ± 0.61 Å².
“LTSLNVKYNNDK [_LTSLNVK(Methyl (K))YNNDK_]” gave a collision cross section [19] of 408.99 ± 1.4 Å² and a collision cross section [20] of 486.12 ± 3.3 Å².
“LTSLNVKYNNDK [_LTSLNVK(Propionyl)YNNDK_]” showed a collision cross section [21] of 410.81 ± 0.38 Å².
Sequence LTSLNVKYNNDK [_LTSLNVK(Succinyl)YNNDK_] has a collision cross section [22] of 411.65 ± 1.1 Å².
With “LTSLNVKYNNDK [_LTSLNVK(Trimethyl (K))YNNDK_]” the collision cross section [23] was 406.52 ± 0.61 Å² and the collision cross section [24] was 461.22 ± 1.8 Å².
Sequence “LTSLNVKYNNDK [_LTSLNVK(hydroxyisobutyryl)YNNDK_]” has a collision cross section [25] of 415.97 ± 0.31 Å².
Sequence LVFDEYLK [_LVFDEY(Nitro (Y))LK_] has a collision cross section [6] of 355.63 ± 0.17 Å².
“LVLPSQAQARLPSGEVVK [_LVLPSQAQAR(Citrullination (R))LPSGEVVK_]” gave a collision cross section [2] of 464.28 ± 0.94 Å² and a collision cross section (charge state: 3, modification: Citrullination (R)) of 522.33 ± 4.3 Å².
With “LVLPSQAQARLPSGEVVK [_LVLPSQAQAR(Methyl (R))LPSGEVVK_]” the collision cross section [3] was 522.24 ± 0.66 Å².
With LYAVHQEGNK [_LY(Nitro (Y))AVHQEGNK_] the collision cross section [6] was 359.52 ± 0.17 Å² and the collision cross section (charge state: 3, modification: Nitro (Y)) was 458.4 ± 0.23 Å².
Work on LYAVHQEGNK [_LY(Phospho (Y))AVHQEGNK_] yielded a collision cross section [1] of 367.74 ± 0.74 Å² and a collision cross section (charge state: 3, modification: Phospho (Y)) of 466.01 ± 0.98 Å².
With LYDIDVAK [_LY(Nitro (Y))DIDVAK_] the collision cross section [6] was 344.32 ± 0.56 Å².
LYDIDVAK [_LY(Phospho (Y))DIDVAK_] gave a collision cross section [1] of 363.27 ± 0.78 Å².
In the case of LYLPVQNK [_LY(Nitro (Y))LPVQNK_], the collision cross section [6] is reported as 340.84 ± 0.55 Å².
In the case of LYLPVQNK [_LY(Phospho (Y))LPVQNK_], the collision cross section [1] is reported as 343.68 ± 6.9 Å².
Work on MFLSFPTTK [_MFLS(HexNAc (ST))FPTTK_] yielded a collision cross section [4] of 373.63 ± 0.17 Å².
In the case of MTLSVLSR [_MTLS(HexNAc (ST))VLSR_], the collision cross section [4] is reported as 352.44 ± 0.8 Å².
Work on “NLVTGDHIPTPQDLPQR [_NLVT(HexNAc (ST))GDHIPTPQDLPQR_]” yielded a collision cross section [5] of 500.97 Å².
“PANEKATDDYHYEK [_PANEK(Acetyl (K))ATDDYHYEK_]” showed a collision cross section [7] of 436.41 ± 2.5 Å² and a collision cross section (charge state: 3, modification: Acetyl (K)) of 502.57 ± 2 Å².
“PANEKATDDYHYEK [_PANEK(Biotin)ATDDYHYEK_]” gave a collision cross section (charge state: 3, modification: Biotin) of 529.25 ± 3.6 Å².
Sequence “PANEKATDDYHYEK [_PANEK(Butyryl)ATDDYHYEK_]” has a collision cross section [8] of 443.05 ± 0.53 Å² and a collision cross section [9] of 509.24 ± 1.8 Å².
With “PANEKATDDYHYEK [_PANEK(Crotonyl)ATDDYHYEK_]” the collision cross section [10] was 442.98 ± 0.0094 Å² and the collision cross section (charge state: 3, modification: Crotonyl) was 509.39 ± 1.3 Å².
“PANEKATDDYHYEK [_PANEK(Dimethyl (K))ATDDYHYEK_]” showed a collision cross section [12] of 491.56 Å².
With “PANEKATDDYHYEK [_PANEK(Formyl)ATDDYHYEK_]” the collision cross section [13] was 435.25 ± 0.72 Å² and the collision cross section (charge state: 3, modification: Formyl) was 497.77 ± 2.4 Å².
“PANEKATDDYHYEK [_PANEK(Gluratylation)ATDDYHYEK_]” gave a collision cross section [14] of 448.09 ± 1.5 Å² and a collision cross section [15] of 511.51 ± 1 Å².
Work on “PANEKATDDYHYEK [_PANEK(GlyGly (K))ATDDYHYEK_]” yielded a collision cross section [16] of 439.63 ± 1.2 Å² and a collision cross section [17] of 506.82 ± 0.35 Å².
